The results in this text go back to patent US20200087395 (published 2020).

The target of assay [1] is T1, cynomolgus CD200RLa (activating form) (cynomolgus monkey).
T1 chain: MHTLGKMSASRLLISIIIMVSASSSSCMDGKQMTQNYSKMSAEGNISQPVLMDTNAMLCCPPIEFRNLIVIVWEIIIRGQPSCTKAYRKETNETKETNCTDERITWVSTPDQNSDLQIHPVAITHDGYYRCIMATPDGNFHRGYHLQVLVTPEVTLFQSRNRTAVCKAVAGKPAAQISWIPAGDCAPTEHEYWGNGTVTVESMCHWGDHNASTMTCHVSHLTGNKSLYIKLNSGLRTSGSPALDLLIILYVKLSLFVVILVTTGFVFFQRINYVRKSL
The assay can be described thus: FACS. A general note: Flow cytometry measures light scatter and fluorescence of single cells or particles in a stream.

Assay [2] has as its target T1, cynomolgus CD200RLa (activating form). The experiment in a line: SPR, 37C. A general note: In SPR one partner is held on a chip, and binding of the other changes the refractive index at the surface.
The target of a further assay is T2, mouse CD200R (mouse, UniProt Q9ES57).
T2 chain: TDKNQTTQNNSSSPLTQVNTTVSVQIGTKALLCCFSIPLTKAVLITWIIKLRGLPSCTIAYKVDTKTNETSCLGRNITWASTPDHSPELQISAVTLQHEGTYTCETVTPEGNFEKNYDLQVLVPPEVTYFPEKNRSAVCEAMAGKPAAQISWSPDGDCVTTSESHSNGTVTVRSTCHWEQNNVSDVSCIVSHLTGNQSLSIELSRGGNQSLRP
The experiment in a line: SPR, 37C.

A further assay has as its target FcγRIIIA_158F ECD (human, UniProt P08637). The assay can be described thus: SPR, 25C.

Sequence of FcγRIIIA_158F ECD (P08637 17-208): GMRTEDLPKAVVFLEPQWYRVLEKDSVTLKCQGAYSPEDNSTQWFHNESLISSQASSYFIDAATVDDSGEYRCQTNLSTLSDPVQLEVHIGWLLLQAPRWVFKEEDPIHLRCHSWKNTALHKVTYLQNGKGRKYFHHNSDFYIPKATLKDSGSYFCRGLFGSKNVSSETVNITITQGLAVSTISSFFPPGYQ

B1: Antibody I-4P (antibody)
chain 1: not shown
chain 2: EIVLTQSPDFQSVTPKEKVTITCQASESIDSYLLWYQQKPDQSPKLLIKQASTLASGVPSRFSGSGSGTDFTLTINSLEAEDAATYYCQNYYDISSNDFGGGTKVEIKRTVAAPSVFIFPPSDEQLKSGTASVVCLLNNFYPREAKVQWKVDNALQSGNSQESVTEQDSKDSTYSLSSTLTLSKADYEKHKVYACEVTHQGLSSPVTKSFNRGEC
modifications: listing feature
The Kd is the equilibrium constant for the complex coming apart. Low values mean tighter binding, high ones weaker binding. For the molecule B1, in assay [1], the binding result is reported as “no binding”. In addition, the Kd in assay [2] was 2.5 µM; in the assay with mouse CD200R, above 10 µM; in the assay with FcγRIIIA_158F ECD it was above 10 µM.
